From patent US20120041175A1 (ROCKEFELLER UNIVERISTY, published 2012)

Experiments:
[1] = biological target: T1, Rubicon-EGFP (full-length mouse Rubicon tagged with EGFP at the C-terminus) (mouse, UniProt Q80U62 1-956); assay: co-IP with anti-GFP antibody from co-transfected HEK 293T cells, anti-FLAG blot
T1 construct: also called EGFP-tagged Rubicon; GFP-tagged full-length Rubicon; not shown: EGFP tag at the C-terminus (pEGFP-N3 vector)
T1 sequence: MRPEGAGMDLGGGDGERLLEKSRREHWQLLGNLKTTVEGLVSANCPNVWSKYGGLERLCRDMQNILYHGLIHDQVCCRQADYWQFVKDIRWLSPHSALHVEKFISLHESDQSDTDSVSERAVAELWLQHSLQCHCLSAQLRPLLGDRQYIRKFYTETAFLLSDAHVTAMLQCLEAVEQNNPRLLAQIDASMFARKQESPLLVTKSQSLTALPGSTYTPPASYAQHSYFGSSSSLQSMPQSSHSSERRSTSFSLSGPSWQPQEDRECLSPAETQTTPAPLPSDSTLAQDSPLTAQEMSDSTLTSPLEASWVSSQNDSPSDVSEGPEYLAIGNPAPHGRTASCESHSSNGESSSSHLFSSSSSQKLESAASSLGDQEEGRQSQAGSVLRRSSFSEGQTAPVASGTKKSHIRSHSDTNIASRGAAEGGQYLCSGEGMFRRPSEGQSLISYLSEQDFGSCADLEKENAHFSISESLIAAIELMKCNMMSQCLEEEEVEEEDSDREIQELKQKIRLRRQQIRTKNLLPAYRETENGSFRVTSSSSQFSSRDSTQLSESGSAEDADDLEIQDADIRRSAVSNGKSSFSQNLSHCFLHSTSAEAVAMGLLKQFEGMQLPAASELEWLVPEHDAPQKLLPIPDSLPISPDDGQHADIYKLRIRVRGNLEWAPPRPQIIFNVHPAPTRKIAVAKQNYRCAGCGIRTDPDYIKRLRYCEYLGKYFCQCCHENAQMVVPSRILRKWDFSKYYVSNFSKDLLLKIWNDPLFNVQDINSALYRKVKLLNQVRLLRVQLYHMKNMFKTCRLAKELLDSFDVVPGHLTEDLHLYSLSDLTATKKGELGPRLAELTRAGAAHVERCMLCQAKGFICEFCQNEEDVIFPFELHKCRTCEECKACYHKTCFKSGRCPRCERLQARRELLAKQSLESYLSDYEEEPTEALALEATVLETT
From the text: (§1) FIG. 2A-E. Mapping of the binding domains that mediate the interaction between Beclin 1 and ATG14L/Rubicon. (A) Schematic representations of Beclin 1, ATG14L and Rubicon domain structures and the construction of multiple deletion mutants. The Beclin 1 mutants were tagged with FLAG at N-termini. The ATG14L or Rubicon mutants were tagged with EGFP at C-termini. (B) and (C) Domain mapping in Beclin 1 sequence required for binding ATG14L or Rubicon. HEK 293T cells were co-transfected with FLAG-tagged Beclin 1 mutant constructs and GFP-tagged full-length ATG14L […]. The immunoprecipitation was performed with anti-GFP antibody, followed by Western blotting with anti-FLAG antibody.
(§2) DNA plasmids were transfected into HEK 293T cells for immunoprecipitation. For Co-immunoprecipitation experiments, two or three plasmids were transfected simultaneously in equal amount. Cells were lysed in immunoprecipitation lysis buffer (20 mM HEPES, pH7.4/1 mM MgCl2/0.25 mM CaCl2/0.2% Triton X-100/150 mM NaCl/protease inhibitor and PMSF-pepstatin/DNaseI). For immunoprecipitation with GFP, ATG14L or Rubicon antibody, Dynabeads M-270 E-proxy (Invitrogen, Carlsbad, Calif.) were conjugated with each antibody, and incubated with cell lysate at 4° C. for 2 hours. After the beads were washed in ATG14L or Rubicon lysis buffer for 5 times, proteins were eluted by incubating beads in elution buffer (0.5 mM EDTA, pH8/0.5N NH₃.H₂O) at room temperature for 20 minutes and dried with vacuum speed centrifuge. For FLAG-tagged protein IP, Anti-FLAG M2 affinity resin (Sigma, St Louis, Mo.) was used and the manufacture's protocol was followed.

[2] = biological target: T2, ATG14L-EGFP (full-length mouse ATG14L tagged with EGFP at the C-terminus) (mouse, UniProt Q8CDJ3 1-492); assay: co-IP with anti-GFP antibody from co-transfected HEK 293T cells (FIG. 11)
T2 construct: Mouse cDNA cloned into pEGFP-N3 and expressed in HEK 293/293T or HeLa cells; also called EGFP-tagged ATG14L; GFP-tagged full-length ATG14L; not shown: EGFP tag at the C-terminus (pEGFP-N3 vector)

[3] = biological target: T1, Rubicon-EGFP (full-length mouse Rubicon …); assay: as above
[4] = biological target: T3, ATG14L (endogenous, mouse tissue or NIH 3T3 cells) (mouse, UniProt Q8CDJ3 1-492); assay: co-IP of endogenous proteins with anti-ATG14L antibody from NIH 3T3 cell lysates, Western blot
T3 construct: also called BISC

[5] = biological target: T2, ATG14L-EGFP (full-length mouse ATG14L …); assay: co-IP with anti-GFP antibody from co-transfected HEK 293T cells, anti-FLAG blot
From the text: as §1, §2

[6] = biological target: Myc-Vps34/PtdIns3K (Myc-tagged hVps34) (human, UniProt Q8NEB9 1-887); assay: cell-based or functional assay
[7] = biological target: T2, ATG14L-EGFP (full-length mouse ATG14L …); assay: co-IP with anti-GFP antibody from co-transfected HEK 293T cells; anti-FLAG blot
From the text: as §1
DNA plasmids were transfected into HEK 293T cells for immunoprecipitation. For Co-immunoprecipitation experiments, two or three plasmids were transfected simultaneously in equal amount. Cells were lysed in immunoprecipitation lysis buffer (20 mM HEPES, pH7.4/1 mM MgCl2/0.25 mM CaCl2/0.2% Triton X-100/150 mM NaCl/protease inhibitor and PMSF-pepstatin/DNaseI). For immunoprecipitation with GFP, ATG14L or Rubicon antibody, Dynabeads M-270 E-proxy (Invitrogen, Carlsbad, Calif.) were conjugated with each antibody, and incubated with cell lysate at 4° C. for 2 hours. […]

Chain of Myc-Vps34/PtdIns3K (Myc-tagged hVps34) (Q8NEB9 whole entry): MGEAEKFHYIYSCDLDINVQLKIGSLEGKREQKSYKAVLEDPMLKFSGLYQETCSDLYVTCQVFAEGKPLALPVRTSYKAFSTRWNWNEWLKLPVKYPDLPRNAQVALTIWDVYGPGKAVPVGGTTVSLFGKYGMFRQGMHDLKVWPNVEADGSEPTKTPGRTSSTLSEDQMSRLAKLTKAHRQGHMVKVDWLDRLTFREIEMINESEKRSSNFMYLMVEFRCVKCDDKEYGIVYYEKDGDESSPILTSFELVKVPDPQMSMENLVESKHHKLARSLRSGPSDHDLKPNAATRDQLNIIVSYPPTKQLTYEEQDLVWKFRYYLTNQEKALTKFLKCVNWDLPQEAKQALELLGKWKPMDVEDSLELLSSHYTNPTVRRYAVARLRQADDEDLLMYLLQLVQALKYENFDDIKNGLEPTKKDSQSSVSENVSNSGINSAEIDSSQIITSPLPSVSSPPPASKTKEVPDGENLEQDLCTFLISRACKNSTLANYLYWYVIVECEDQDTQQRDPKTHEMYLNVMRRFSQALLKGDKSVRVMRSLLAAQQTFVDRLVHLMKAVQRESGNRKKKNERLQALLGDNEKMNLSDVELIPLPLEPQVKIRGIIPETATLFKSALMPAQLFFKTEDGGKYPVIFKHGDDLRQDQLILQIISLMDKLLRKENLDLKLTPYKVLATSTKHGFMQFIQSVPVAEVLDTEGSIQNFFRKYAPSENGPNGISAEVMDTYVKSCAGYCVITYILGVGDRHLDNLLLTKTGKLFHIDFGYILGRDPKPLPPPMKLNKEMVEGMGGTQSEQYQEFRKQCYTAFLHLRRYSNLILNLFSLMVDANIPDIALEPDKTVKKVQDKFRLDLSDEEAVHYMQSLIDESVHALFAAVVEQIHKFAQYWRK

B1: FLAG-Beclin 1 BC (Bcl2-binding domain and Coiled-coil domain) (other)
chain: MEGSKASSSTMQVSFVCQRCSQPLKLDTSFKILDRVTIQELTAPLLTTAQAKPGETQEEEANSGEEPFIETRQDGVSRRFIPPARMMSTESANSFTLIGEASDGGTMENLSRRLKVTGDLFDIMSGQTDVDHPLCEECTDTLLDQLDTQLNVTENECQNYKRCLEILEQMNEDDSEQLQRELKELALEEERLIQELEDVEKNRKVVAENLEKVQAEAERLDQEEAQYQREYSEFKRQQLELDDELKSVENQVRYAQIQLDKLKKTNVFN
notes: also called FLAG-BC; not shown: FLAG tag at the N-terminus (pCMV-FLAG2 vector)
B1: no binding [1].

B2: Beclin 1-AsRed (other)
chain: MEGSKASSSTMQVSFVCQRCSQPLKLDTSFKILDRVTIQELTAPLLTTAQAKPGETQEEEANSGEEPFIETRQDGVSRRFIPPARMMSTESANSFTLIGEASDGGTMENLSRRLKVTGDLFDIMSGQTDVDHPLCEECTDTLLDQLDTQLNVTENECQNYKRCLEILEQMNEDDSEQLQRELKELALEEERLIQELEDVEKNRKVVAENLEKVQAEAERLDQEEAQYQREYSEFKRQQLELDDELKSVENQVRYAQIQLDKLKKTNVFNATFHIWHSGQFGTINNFRLGRLPSVPVEWNEINAAWGQTVLLLHALANKMGLKFQRYRLVPYGNHSYLESLTDKSKELPLYCSGGLRFFWDNKFDHAMVAFLDCVQQFKEEVEKGETRFCLPYRMDVEKGKIEDTGGSGGSYSIKTQFNSEEQWTKALKFMLTNLKWGLAWVSSQFYNK
notes: Beclin 1 cDNA from mouse brain cloned into pAs-Red; not shown: AsRed fluorescent protein tag (pAs-Red vector)
B2: binds [2]; binds [3].

B3: endogenous Beclin 1 of NIH 3T3 cells / mouse tissue (other)
chain: B2 chain
notes: NIH 3T3 is a mouse cell line (inference)
B3: binds [4].

B4: FLAG-Beclin 1 BD domain (aa 1-150) (other)
chain: MEGSKASSSTMQVSFVCQRCSQPLKLDTSFKILDRVTIQELTAPLLTTAQAKPGETQEEEANSGEEPFIETRQDGVSRRFIPPARMMSTESANSFTLIGEASDGGTMENLSRRLKVTGDLFDIMSGQTDVDHPLCEECTDTLLDQLDTQL
notes: not shown: FLAG tag at the N-terminus (pCMV-FLAG2 vector)
B4: no binding [5]; no binding [1].

B5: FLAG-ATG14L (mouse ATG14L tagged with FLAG at the N-terminus) (other, not shown: small tags and cut ends)
chain: MASPSGKGSWTPEAPGFGPRALARDLVDSVDDAEGLYVAVERCPLCNTTRRRLTCAKCVQSGDFVYFDGRDRERFIDKKERLSQLKNKQEEFQKEVLKAMEGKRLTDQLRWKIMSCKMRIEQLKQTICKGNEEMKKNSEGLLKNKEKNQKLYSRAQRHQEKKEKIQRHNRKLGDLVEKKTIDLKSHYERLARLRRSHILELTSIIFPIDEVKTSGRDPADVSSETDSAMTSSMVSKLAEARRTTYLSGRWVCDDHNGDTSISITGPWISLPNNGDYSAYYNWVEEKKTTQGPDMEHNNPAYTISAALGYATQLVNIVSHILDINLPKKLCNSEFCGENLSKQKLTRAVRKLNANILYLCSSQHVNLDQLQPLHTLRNLMHLVSPRSEHLGRSGPFEVRADLEESMEFVDPGVAGESDASGDERVSDEETDLGTDWENLPSPRFCDIPSQPVEVSQSQSTQVSPPIASSSAGGMISSAAASVTSWFKAYTGHR
For B5, the “Vps34 kinase activity (radioactive PtdIns(3)P normalized against immunoprecipitated Myc-tagged Vps34), over-expressed ATG14L against empty vector, in the presence of Beclin 1” value [6] was 2.5 ratio.

B6: FLAG-Beclin 1 CCD domain (aa 144-269) (other)
chain: DQLDTQLNVTENECQNYKRCLEILEQMNEDDSEQLQRELKELALEEERLIQELEDVEKNRKVVAENLEKVQAEAERLDQEEAQYQREYSEFKRQQLELDDELKSVENQVRYAQIQLDKLKKTNVFN
notes: aa 144-269 is printed for the CCD domain of Beclin 1; also called C (Coiled-coil domain); FLAG-C; not shown: FLAG tag at the N-terminus (pCMV-FLAG2 vector)
B6: no binding [1]; binds [7].

B7: FLAG-Rubicon (mouse Rubicon tagged with FLAG at the N-terminus) (other, not shown: small tags and cut ends)
chain: T1 sequence
In the case of B7, the “Vps34 kinase activity (radioactive PtdIns(3)P normalized against immunoprecipitated Myc-tagged Vps34), over-expressed Rubicon against empty vector, in the absence of Beclin 1” value [6] is reported as 0.58 ratio.

B8: FLAG-Beclin 1 ECD domain (aa 244-448) (other)
chain: ELKSVENQVRYAQIQLDKLKKTNVFNATFHIWHSGQFGTINNFRLGRLPSVPVEWNEINAAWGQTVLLLHALANKMGLKFQRYRLVPYGNHSYLESLTDKSKELPLYCSGGLRFFWDNKFDHAMVAFLDCVQQFKEEVEKGETRFCLPYRMDVEKGKIEDTGGSGGSYSIKTQFNSEEQWTKALKFMLTNLKWGLAWVSSQFYNK
notes: also called E (Evolutionarily conserved domain); FLAG-E; not shown: FLAG tag at the N-terminus (pCMV-FLAG2 vector)
B8: no binding [5]; no binding [1].
